Results on 15 molecules are retold here after patent publication US20110014193A1 (JURIDICAL FDN THE CHEMO SERO THERAPEUTIC RES INST, published 2011).

Where a chain is given by its changes, count along the chain named. Names may count otherwise. Where two headings read alike, the source gives them in different places.

What all share (test): cell-based or functional assay
Experiment [1] deals with T1, human α9 integrin molecule (human, UniProt Q13797 30-1035; P05556 21-798).
The target of experiment [2] is T1, human α9 integrin molecule. The source holds these as a separate data set.
For experiment [3], the target named is T1, human α9 integrin molecule. This is another data set of the same source.
The target of experiment [4] is T1, human α9 integrin molecule. The source holds these as a separate data set.
Experiment [5] concerns the target T1, human α9 integrin molecule. This is another data set of the same source.
The target of experiment [6] is T1, human α9 integrin molecule. This is another data set of the same source.
The target of experiment [7] is T1, human α9 integrin molecule. This is another data set of the same source.
For experiment [8], the target named is T1, human α9 integrin molecule. This is another data set of the same source.
For experiment [9], the target named is T1, human α9 integrin molecule. This is another data set of the same source.

T1 sequence (Q13797 30-1035 limits assumed, chain 1 of 2): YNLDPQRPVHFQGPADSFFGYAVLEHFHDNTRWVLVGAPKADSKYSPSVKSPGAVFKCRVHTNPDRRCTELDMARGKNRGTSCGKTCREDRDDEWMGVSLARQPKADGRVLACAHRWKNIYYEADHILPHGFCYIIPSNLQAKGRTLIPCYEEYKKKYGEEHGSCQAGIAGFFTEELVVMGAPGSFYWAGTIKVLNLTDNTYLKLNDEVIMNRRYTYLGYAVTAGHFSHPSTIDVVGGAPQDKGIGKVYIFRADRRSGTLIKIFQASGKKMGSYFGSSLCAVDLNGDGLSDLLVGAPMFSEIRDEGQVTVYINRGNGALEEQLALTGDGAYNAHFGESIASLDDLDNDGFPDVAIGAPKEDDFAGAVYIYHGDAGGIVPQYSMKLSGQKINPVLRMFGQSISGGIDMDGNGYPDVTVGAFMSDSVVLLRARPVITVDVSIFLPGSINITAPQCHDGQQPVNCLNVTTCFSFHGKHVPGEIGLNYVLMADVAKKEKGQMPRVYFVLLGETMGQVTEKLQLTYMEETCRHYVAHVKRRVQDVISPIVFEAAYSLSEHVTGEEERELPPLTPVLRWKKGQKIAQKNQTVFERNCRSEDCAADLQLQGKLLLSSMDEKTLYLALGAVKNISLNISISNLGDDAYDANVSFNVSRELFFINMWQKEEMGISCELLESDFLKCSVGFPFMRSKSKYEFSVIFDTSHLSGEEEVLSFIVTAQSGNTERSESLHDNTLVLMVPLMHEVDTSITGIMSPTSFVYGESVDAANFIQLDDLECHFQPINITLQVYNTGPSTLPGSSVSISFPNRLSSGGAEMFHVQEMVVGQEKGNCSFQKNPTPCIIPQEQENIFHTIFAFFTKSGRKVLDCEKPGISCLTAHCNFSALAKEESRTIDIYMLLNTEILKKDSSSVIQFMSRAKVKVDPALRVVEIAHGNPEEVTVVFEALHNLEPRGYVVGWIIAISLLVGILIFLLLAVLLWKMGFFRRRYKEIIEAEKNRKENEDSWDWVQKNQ
T1 sequence (P05556 21-798 limits assumed, chain 2 of 2): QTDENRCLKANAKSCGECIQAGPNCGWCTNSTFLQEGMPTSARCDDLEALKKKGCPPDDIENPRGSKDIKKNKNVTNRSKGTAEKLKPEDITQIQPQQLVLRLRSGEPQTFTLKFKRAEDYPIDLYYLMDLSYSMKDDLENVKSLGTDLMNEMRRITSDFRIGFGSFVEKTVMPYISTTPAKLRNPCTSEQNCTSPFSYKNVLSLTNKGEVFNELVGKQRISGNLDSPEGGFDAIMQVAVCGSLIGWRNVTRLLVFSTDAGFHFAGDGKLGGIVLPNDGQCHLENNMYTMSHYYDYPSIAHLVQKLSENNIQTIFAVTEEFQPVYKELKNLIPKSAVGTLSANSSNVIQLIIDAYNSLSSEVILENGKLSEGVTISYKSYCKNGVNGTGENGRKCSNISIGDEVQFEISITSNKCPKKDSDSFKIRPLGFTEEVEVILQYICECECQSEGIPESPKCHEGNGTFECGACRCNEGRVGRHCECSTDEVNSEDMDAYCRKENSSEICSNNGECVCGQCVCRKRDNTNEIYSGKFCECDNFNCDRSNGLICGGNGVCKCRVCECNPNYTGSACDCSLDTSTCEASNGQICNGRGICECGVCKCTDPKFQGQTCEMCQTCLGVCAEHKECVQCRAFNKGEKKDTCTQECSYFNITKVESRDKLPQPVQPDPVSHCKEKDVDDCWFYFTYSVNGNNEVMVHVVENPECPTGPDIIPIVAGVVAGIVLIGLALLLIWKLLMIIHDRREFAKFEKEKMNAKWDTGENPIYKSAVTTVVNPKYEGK

B1: mouse Y9A2 antibody (antibody, V domains shown)
VH: QVQLQQSGAELANPGASVKMSCKASGYTLTTYWMHWVKQRPGQGLEWIGYINPSSGYTEYNQKFKDKATLTADKSSSTAYMQLTSLTSEDSAVYYCAIYGDYGDFYFDYWGQGTTLTVSS
VL: SIVMTQTPKFLLVSAGDRVTMTCKASQSVNTDVAWFQQKPGQSPKLLIYFASNHYTGVPDRFTGSGYGTDFTFTISTVQAEDLAIYFCRQDYSSPFTFGGGTKLEIKR
Consider B1, for which the “IC50 (µg/mL), cell adhesion inhibition test, SW480/hα9 cells on nOPN-RAA” value in [1] was 0.039 µg/mL. Further, in experiment [2], the “specific activity (IC50 relative to mouse Y9A2 = 1), cell adhesion inhibition test on human Tenascin C-RAA” value is 1 ratio of IC50 to mouse Y9A2 and the “specific activity (IC50 relative to mouse Y9A2 = 1), cell adhesion inhibition test on human VCAM-1” value is 1 ratio of IC50 to mouse Y9A2. Besides, in experiment [3], the “inhibitory rate (%) of migration of SW480/hα9 cell against nOPN-RAA, antibody at 5 µg/mL” value (“inhibitory rate (%)” for short) was 28%. In addition, the “IC50 (µg/mL), cell adhesion inhibition test, SW480/hα9 cells on nOPN-RAA” value in [4] was determined as 0.049 µg/mL. Also, in experiment [5], the “IC50 (µg/mL), cell adhesion inhibition test, SW480/hα9 cells on nOPN-RAA” value came to 0.025 µg/mL. The “specific activity (IC50 relative to mouse Y9A2 = 1), cell adhesion inhibition test on nOPN-RAA” value in [6] is 1 ratio of IC50 to mouse Y9A2. In experiment [7], the “average cell adhesion inhibitory activity IC50, SW480/hα9 cells on human Tenascin C-RAA” value turned out to be 0.041 µg/mL; the “average cell adhesion inhibitory activity IC50, SW480/hα9 cells on human VCAM-1/Ig” value is 0.077 µg/mL; the “average of IC50 values, cell adhesion inhibition test, SW480/hα9 cells on nOPN-RAA” value is 0.039 µg/mL. The “IC50 (µg/mL), cell adhesion inhibition test, SW480/hα9 cells on nOPN-RAA” value in [8] was 0.07 µg/mL. In addition, in experiment [9], the “IC50 (µg/mL), cell adhesion inhibition test, SW480/hα9 cells on nOPN-RAA; value in parentheses, measured simultaneously with RY9A2v5(AL)01” value came out at 0.052 µg/mL; the “IC50 (µg/mL), cell adhesion inhibition test, SW480/hα9 cells on nOPN-RAA; value in parentheses, measured simultaneously with RY9A2v5(AW)01” value was determined as 0.037 µg/mL; the “IC50 (µg/mL), cell adhesion inhibition test, SW480/hα9 cells on nOPN-RAA; value in parentheses, measured simultaneously with RY9A2v5(SW)01” value was found to be 0.052 µg/mL; the “IC50 (µg/mL), cell adhesion inhibition test, SW480/hα9 cells on nOPN-RAA; value in parentheses, measured simultaneously with RY9A2v5(WE)01” value is 0.052 µg/mL.

B2: chimeric Y9A2 antibody (antibody, V domains shown)
VH: B1 VH
VL: B1 VL
Consider B2, for which the “IC50 (µg/mL), cell adhesion inhibition test, SW480/hα9 cells on nOPN-RAA” value in experiment [1] was 0.038 µg/mL.

B3: RY9A2v501 antibody (antibody, V domains shown)
VH: QVQLVQSGAEVKKPGSSVKMSCKASGYTLTTYWMHWVKQRPGQGLEWIGYINPSSGYTEYNQKFKDRVTITADKSTSTAYMELSSLRSEDTAVYYCAIYGDYGDFYFDYWGQGTTVTVSS
VL: DIQMTQSPSSLSASVGDRVTITCKASQSVNTDVAWYQQKPGKAPKLLIYFASNHYTGVPSRFSGSGSGTDFTFTISSLQPEDIATYYCRQDYSSPFTFGGGTKVEIKR
On to B3, for which the “IC50 (µg/mL), cell adhesion inhibition test, SW480/hα9 cells on nOPN-RAA” value in [8] was determined as 0.054 µg/mL.

B4: RY9A2v5(AL)01 antibody (antibody, V domains shown)
VH: B3 VH with D104A, F105L
VL: B3 VL
As to B4, the “IC50 (µg/mL), cell adhesion inhibition test, SW480/hα9 cells on nOPN-RAA” value in experiment [9] worked out at 0.032 µg/mL.

B5: RY9A2v5(SW)01 antibody (antibody, V domains shown)
VH: B3 VH with D104S, F105W
VL: B3 VL
B5: the “IC50 (µg/mL), cell adhesion inhibition test, SW480/hα9 cells on nOPN-RAA” value in experiment [9] is 0.035 µg/mL.

B6: RY9A2v5(WE)01 antibody (antibody, V domains shown)
VH: B3 VH with D104W, F105E
VL: B3 VL
In the case of B6, the “IC50 (µg/mL), cell adhesion inhibition test, SW480/hα9 cells on nOPN-RAA” value in experiment [9] was found to be 0.022 µg/mL.

B7: RY9A2v11(M34L)012 antibody (antibody, human IgG1, kappa, V domains shown)
VH: B3 VH with M34L, K65Q, D66G
VL: B3 VL with K24R
As to B7, in experiment [2], the “specific activity (IC50 relative to mouse Y9A2 = 1), cell adhesion inhibition test on human Tenascin C-RAA” value is 0.35 ratio of IC50 to mouse Y9A2 and the “specific activity (IC50 relative to mouse Y9A2 = 1), cell adhesion inhibition test on human VCAM-1” value was 0.44 ratio of IC50 to mouse Y9A2. Besides, the “inhibitory rate (%)” value in [3] stood at 84%. For the same molecule, in [6], the “specific activity (IC50 relative to mouse Y9A2 = 1), cell adhesion inhibition test on nOPN-RAA” value is 0.23 ratio of IC50 to mouse Y9A2.

B8: RY9A2v5(AW)01 antibody (antibody, V domains shown)
VH: B3 VH with D104A, F105W
VL: B3 VL
B8: in experiment [9], the “IC50 (µg/mL), cell adhesion inhibition test, SW480/hα9 cells on nOPN-RAA” value came to 0.015 µg/mL.

B9: RY9A2v5(M34L)01 antibody (antibody, V domains shown)
VH: B3 VH with M34L
VL: B3 VL
Consider B9, for which, in experiment [4], the “IC50 (µg/mL), cell adhesion inhibition test, SW480/hα9 cells on nOPN-RAA” value worked out at 0.021 µg/mL.

B10: RY9A2v11011 antibody (antibody, V domains shown)
VH: B3 VH with K65Q, D66G
VL: B3 VL with K24Q
With B10, in experiment [5], the “IC50 (µg/mL), cell adhesion inhibition test, SW480/hα9 cells on nOPN-RAA” value was found to be 0.012 µg/mL.

B11: RY9A2v12(M34L)012 antibody (antibody, human IgG1, kappa, V domains shown)
VH: B3 VH with M20V, M34L, K38R, R40A, I48M, K65Q, D66G
VL: B3 VL with K24R
Consider B11, for which, in [2], the “specific activity (IC50 relative to mouse Y9A2 = 1), cell adhesion inhibition test on human Tenascin C-RAA” value was 0.26 ratio of IC50 to mouse Y9A2 and the “specific activity (IC50 relative to mouse Y9A2 = 1), cell adhesion inhibition test on human VCAM-1” value is 0.95 ratio of IC50 to mouse Y9A2. In addition, in [3], the “inhibitory rate (%)” value stood at 86%. The “specific activity (IC50 relative to mouse Y9A2 = 1), cell adhesion inhibition test on nOPN-RAA” value in experiment [6] is 0.23 ratio of IC50 to mouse Y9A2.

B12: RY9A2v5(M34I)01 antibody (antibody, V domains shown)
VH: B3 VH with M34I
VL: B3 VL
For the molecule B12, the “IC50 (µg/mL), cell adhesion inhibition test, SW480/hα9 cells on nOPN-RAA” value in experiment [4] amounted to 0.024 µg/mL.

B13: RY9A2v11012 antibody (antibody, V domains shown)
VH: B3 VH with K65Q, D66G
VL: B3 VL with K24R
B13: the “IC50 (µg/mL), cell adhesion inhibition test, SW480/hα9 cells on nOPN-RAA” value in experiment [5] came out at 0.008 µg/mL.

B14: RY9A2v5(IAW)01 antibody (antibody, human IgG1, kappa, V domains shown)
VH: B3 VH with M34I, D104A, F105W
VL: B3 VL
Consider B14, for which, in [2], the “specific activity (IC50 relative to mouse Y9A2 = 1), cell adhesion inhibition test on human Tenascin C-RAA” value was 0.44 ratio of IC50 to mouse Y9A2 and the “specific activity (IC50 relative to mouse Y9A2 = 1), cell adhesion inhibition test on human VCAM-1” value was 1 ratio of IC50 to mouse Y9A2. Besides, the “inhibitory rate (%)” value in experiment [3] worked out at 109%. In [6], the “specific activity (IC50 relative to mouse Y9A2 = 1), cell adhesion inhibition test on nOPN-RAA” value is 0.29 ratio of IC50 to mouse Y9A2.

B15: RY9A2v801 antibody (antibody, V domains shown)
VH: B3 VH with M20V, K38R, R40A, I48M
VL: B3 VL
Take B15: the “IC50 (µg/mL), cell adhesion inhibition test, SW480/hα9 cells on nOPN-RAA” value in experiment [8] came out at 0.058 µg/mL.
